# B1: Achaete-scute complex protein T4 (Drosophila melanogaster (Fruit fly)), P10084 (parent)
# chain: MKNNNNTTKSTTMSSSVLSTNETFPTTINSATKIFRYQHIMPAPSPLIPGGNQNQPAGTMPIKTRKYTPRGMALTRCSESVSSLSPGSSPAPYNVDQSQSVQRRNARERNRVKQVNNSFARLRQHIPQSIITDLTKGGGRGPHKKISKVDTLRIAVEYIRRLQDLVDDLNGGSNIGANNAVTQLQLCLDESSSHSSSSSTCSSSGHNTYYQNTISVSPLQQQQQLQRQQFNHQPLTALSLNTNLVGTSVPGGDAGCVSTSKNQQTCHSPTSSFNSSMSFDSGTYEGVPQQISTHLDRLDHLDNELHTHSQLQLKFEPYEHFQLDEEDCTPDDEEILDYISLWQEQ
# partner: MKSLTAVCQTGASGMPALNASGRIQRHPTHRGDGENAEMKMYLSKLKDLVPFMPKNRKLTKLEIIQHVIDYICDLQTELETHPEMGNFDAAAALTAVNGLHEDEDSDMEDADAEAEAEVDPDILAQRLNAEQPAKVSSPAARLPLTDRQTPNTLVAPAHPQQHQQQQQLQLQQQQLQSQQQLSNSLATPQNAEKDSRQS
# B2: Achaete-scute complex protein T4 (Drosophila melanogaster (Fruit fly)), P10084 (parent)
# chain: B1 chain
# partner: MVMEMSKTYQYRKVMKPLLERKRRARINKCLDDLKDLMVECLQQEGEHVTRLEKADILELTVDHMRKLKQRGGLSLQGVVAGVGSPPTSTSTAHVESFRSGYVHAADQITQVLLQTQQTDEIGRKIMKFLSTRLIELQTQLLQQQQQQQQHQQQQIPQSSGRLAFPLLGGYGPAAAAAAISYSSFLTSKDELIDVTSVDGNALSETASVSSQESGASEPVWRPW
# Variants of: B1
# Details: with emc_drome emc
row,effect of a mutation on the interaction,Variant
1,decreasing interaction,MKNNNNTTKSTTMSSSVLSTNETFPTTINSATKIFRYQHIMPAPSPLIPGGNQNQPAGTMPIKTRKYTPRGMALTRCSESVSSLSPGSSPAPYNVDQSQSVQRRNARERNRVKQVNNSFARLRQHIPQSIITDLTKGGGRGPHKKISKVDTLRIAVEYIRRLQDLVDDLNGGSNIGANNAVTQLQLCLDESSSHSSSSSTCSSSGHNTYYQNTISVSPLQQQQQLQRQQFNHQPLTALSLNTNLVGTSVPGGDAGCVSTSKNQQTCHSPTSSFNSSMSFDSGTYEGVPQQISTHLDRLDHLDNELHTHSQLQLKFEPYEHFQLDEEDCTPDDEEILDYIDLWQEQ [S340D]

# Variants of: B2
# Details: with esm3_drome E(spl)m3-HLH
row,effect of a mutation on the interaction,Variant
1,increasing interaction,MKNNNNTTKSTTMSSSVLSTNETFPTTINSATKIFRYQHIMPAPSPLIPGGNQNQPAGTMPIKTRKYTPRGMALTRCSESVSSLSPGSSPAPYNVDQSQSVQRRNARERNRVKQVNNSFARLRQHIPQSIITDLTKGGGRGPHKKISKVDTLRIAVEYIRRLQDLVDDLNGGSNIGANNAVTQLQLCLDESSSHSSSSSTCSSSGHNTYYQNTISVSPLQQQQQLQRQQFNHQPLTALSLNTNLVGTSVPGGDAGCVSTSKNQQTCHSPTSSFNSSMSFDSGTYEGVPQQISTHLDRLDHLDNELHTHSQLQLKFEPYEHFQLDEEDCTPDDEEILDYIDLWQEQ [S340D]

# Source: IntAct's records for PubMed 9371806
